B1: Protein draper (Drosophila melanogaster (Fruit fly)), Q9W0A0 (parent)
chain: MLPVILIACLAQLVLAQADLKDLDGPNICKRRELYNVDVVYTELQSFQERGSTWCVTFPPRCSTYRIKHRVVNKTKTIAKNRIVRDCCDGYIASAGECVPHCSEPCQHGRCISPEKCKCDHGYGGPACDINCPPGWYGRNCSMQCDCLNNAVCEPFSGDCECAKGYTGARCADICPEGFFGANCSEKCRCENGGKCHHVSGECQCAPGFTGPLCDMRCPDGKHGAQCQQDCPCQNDGKCQPETGACMCNPGWTGDVCANKCPVGSYGPGCQESCECYKGAPCHHITGQCECPPGYRGERCFDECQLNTYGFNCSMTCDCANDAMCDRANGTCICNPGWTGAKCAERICEANKYGLDCNRTCECDMEHTDLCHPETGNCQCSIGWSSAQCTRPCTFLRYGPNCELTCNCKNGAKCSPVNGTCLCAPGWRGPTCEESCEPGTFGQDCALRCDCQNGAKCEPETGQCLCTAGWKNIKCDRPCDLNHFGQDCAKVCDCHNNAACNPQNGSCTCAAGWTGERCERKCDTGKFGHDCAQKCQCDFNNSLACDATNGRCVCKQDWGGVHCETNCRSGYYGENCDKVCRCLNNSSCDPDSGNCICSAGWTGADCAEPCPPGFYGMECKERCPEILHGNKSCDHITGEILCRTGYIGLTCEHPCPAGLYGPGCKLKCNCEHGGECNHVTGQCQCLPGWTGSNCNESCPTDTYGQGCAQRCRCVHHKVCRKADGMCICETGWSGTRCDEVCPEGFYGEHCMNTCACPSANFQCHAAHGCVCRSGYTGDNCDELIASQRIADQSENSSRASVALTLVLMTLFACIIFAVFIYYRRRVSNLKTEIAHVHYTHDTNPPSWPPNHNFDNPVYGMQAETRLLPNNMRSKMNNFDQRSTMSTDYGDDCNASGRVGSYSINYNHDLLTKNLNADRTNPIVYNESLKEEHVYDEIKHKEGYKDPDEYDHLDYSRPSTSQKPHYHRMNDAMLNINQDEEKPSNVKNMTVLLNKPLPPTEPEPQHECFDNTNTNLDNVSTASPSSSPKFLK
partner: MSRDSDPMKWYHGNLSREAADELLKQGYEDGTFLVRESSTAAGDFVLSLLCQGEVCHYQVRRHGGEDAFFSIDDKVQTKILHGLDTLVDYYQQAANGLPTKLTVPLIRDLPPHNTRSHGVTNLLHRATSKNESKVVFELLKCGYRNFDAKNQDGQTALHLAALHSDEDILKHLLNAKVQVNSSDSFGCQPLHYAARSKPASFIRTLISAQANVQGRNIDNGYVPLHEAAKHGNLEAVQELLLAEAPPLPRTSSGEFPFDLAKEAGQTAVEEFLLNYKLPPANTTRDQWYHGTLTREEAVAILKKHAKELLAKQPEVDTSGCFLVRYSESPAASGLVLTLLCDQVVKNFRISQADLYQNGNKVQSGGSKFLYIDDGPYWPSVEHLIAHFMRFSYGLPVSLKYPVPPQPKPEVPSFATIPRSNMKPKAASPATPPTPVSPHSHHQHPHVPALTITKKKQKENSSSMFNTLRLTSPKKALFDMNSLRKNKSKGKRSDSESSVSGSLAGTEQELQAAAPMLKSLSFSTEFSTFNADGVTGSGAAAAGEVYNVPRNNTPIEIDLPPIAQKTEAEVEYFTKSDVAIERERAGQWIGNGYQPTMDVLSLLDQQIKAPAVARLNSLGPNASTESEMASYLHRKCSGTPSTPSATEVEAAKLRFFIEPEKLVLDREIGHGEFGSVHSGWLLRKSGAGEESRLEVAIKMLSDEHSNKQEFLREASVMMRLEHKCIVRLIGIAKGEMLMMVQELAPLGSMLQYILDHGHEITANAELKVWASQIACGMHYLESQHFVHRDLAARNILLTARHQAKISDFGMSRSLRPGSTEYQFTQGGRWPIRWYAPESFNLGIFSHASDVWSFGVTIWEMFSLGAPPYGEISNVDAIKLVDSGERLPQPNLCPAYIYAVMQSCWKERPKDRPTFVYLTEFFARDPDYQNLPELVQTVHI

Variants of: B1
Details: with shark_drome Shark

effect of a mutation on the interaction | Variant
decreasing interaction | Y949F

Variants of: B1
Details: with shark_drome Shark
Remark: another data set of the same source

effect of a mutation on the interaction | Variant
disrupting interaction | Y949F
decreasing interaction | Y934F

— IntAct's records for PubMed 18432193
